According to the supplement of paper PMC9942255:
Where “and” joins values, the source holds several entries; their conditions need not be identical. Identical values can stand only once.

System: Bacillus subtilis DB104 (SP-AmyQ fusion secretion)
Experiment: AmyQ secretion efficiency, weighted average sort bin (1 = best secretion, 10 = worst) (bin number (weighted average, 1-10)); higher = lower secretion efficiency
Method in brief: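 A B. subtilis DB104 library carrying amyE-integrated fusions of designed signal peptides to mature AmyQ was encapsulated at about 0.3 cells per ~65 nL alginate bead with fluorescein-starch and grown about 13 h at room temperature. Following nile red staining, occupied beads were flow-sorted as large particles into 10 equally populated bins by green/red fluorescence ratio, and the bin amplicons were Illumina-sequenced. The secretion score is the read-frequency-weighted average bin number normalised to beads per bin, leaving out low-abundance sequences.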

| Sequence | AmyQ secretion efficiency |
| --- | --- |
| MKKLLAAGIIGLSIASPSFAAEK | 4.78 |
| MKKLLALLAVVAFAFTDSSKAKAAEA | 2.03 |
| MKKLLSAASLAFFAMSGSAQAAAY | 2.96 |
| MKKLLSTAAGLLLSLTATSVSAHYV | 4.36 |
| MKKLRKKKIIGLLTVSIASPSFAAEK | 7.35 |
| MKKLRKKKKKGLLTVSIASPSFAAEK | 7.52 |
| MKKLSLGVASAALGLALVGGGTWAAFN | 6 |
| MKKLSVAVAASFMSLSISLPGVQAAEG | 1.57 |
| MKKLTLAFLVFLSVVLVTTVFLVKQQESVAQAKQL | 3.11 |
| MKKLVLCVSILAVILKRKRKKALTQLS | 6.12 |
| MKKLVLCVSILAVILRKKALTQLS | 7.41 |
| MKKLVLCVSILAVILSGVALTDED | 6.4 |
| MKKLVLCVSILAVILSGVALTQLS | 5.95 and 6.59 and 6.66 |
| MKKLVLCVSILAVILSGVALVQLS | 5.7 |
| MKKLVLCVSILAVILSGVALYQLS | 4.11 |
| MKKLVLCVSILAVILSGVGLTQLS | 5.94 |
| MKKLVLCVSILAVILSGVLLTQLS | 5.53 |
| MKKLVLCVSILAVILSGVMLTQLS | 6.44 |
| MKKLVLCVSILAVILSGVQLTQLS | 5.61 |
| MKKLVLCVSILAVILSGVTVALTQLS | 3.8 |
| MKKLVLCVSILAVILSGVVLTQLS | 5.78 |
| MKKLVLCVSILAVILSGVWLTQLS | 5.87 |

| Sequence | AmyQ secretion efficiency |
| --- | --- |
| MKKLVLCVSILAVILSGVYLTQLS | 5.92 |
| MKKMKKSGKRFLLALTIHVGEASAVIV | 6.51 |
| MKKMLGKLLITAGILVFFAVVVKDVFAAGL | 7.15 |
| MKKMLGKLLITAGILVFFAVVVKDVFSAGL | 3.11 |
| MKKMLGKSGKQTTTGVFFAVVVKDVFAAGL | 6.37 |
| MKKMLGKSRYGAGILVFFAVVVKDVFAAGL | 4.68 |
| MKKMLMLAFTFLLALTIHVGEASAVRK | 2.01 |
| MKKMNFSSNSIIVMLATALFLGLTPAGANAADL | 4.32 |
| MKKMSNSTNSMSVLMAFIICLSLILSVLAAPPSGAKAESV | 1.73 |
| MKKQIITATTAVVGAASAQSI | 7.59 |
| MKKQIITATTAVVLGSTGAASAQSI | 4.95 |
| MKKQIITATTAVVLGSTLFAAASSTGAASAQSI | 3.24 |
| MKKQIITATTAVVLGSTLFADDEASAQSI | 2.17 |
| MKKQIITATTAVVLGSTLFAEDDDDEASAQSI | 3.86 |
| MKKQIITATTAVVLGSTLFAGAAAVASAQSI | 3.9 |
| MKKQIITATTAVVLGSTLFAGAASAEEE | 2.04 |
| MKKQIITATTAVVLGSTLFAGAASAKRK | 2.25 |
| MKKQIITATTAVVLGSTLFAGAASAQKR | 2.23 |
| MKKQIITATTAVVLGSTLFAGAASAQSD | 2.54 |
| MKKQIITATTAVVLGSTLFAGAASGQSI | 2.03 |
| MKKQIITATTAVVLGSTLFAGAASIQSI | 5.61 |
| MKKQIITATTAVVLGSTLFAGAASMQSI | 3.83 |

| Sequence | AmyQ secretion efficiency |
| --- | --- |
| MKKQIITATTAVVLGSTLFAGAASSQSI | 1.97 |
| MKKQIITATTAVVLGSTLFAGAASTQSI | 2.06 |
| MKKQIITATTAVVLGSTLFAGAASYQSI | 6.33 |
| MKKQIITATTAVVLGSTLFAGACSAQSI | 2.49 |
| MKKQIITATTAVVLGSTLFAGADSAQSI | 3.56 |
| MKKQIITATTAVVLGSTLFAGAGSAQSI | 1.62 |
| MKKQIITATTAVVLGSTLFAGAKSAQSI | 3.92 |
| MKKQIITATTAVVLGSTLFAGALSAQSI | 2.54 |
| MKKQIITATTAVVLGSTLFAGAMSAQSI | 1.54 |
| MKKQIITATTAVVLGSTLFAGANSAQSI | 3.08 |
| MKKQIITATTAVVLGSTLFAGAPPATASVPVVGASAQSI | 2.17 |
| MKKQIITATTAVVLGSTLFAGAPSAQSI | 3.52 |
| MKKQIITATTAVVLGSTLFAGAQSAQSI | 4.07 |
| MKKQIITATTAVVLGSTLFAGARSAQSI | 3.67 |
| MKKQIITATTAVVLGSTLFAGASSAQSI | 2.25 |
| MKKQIITATTAVVLGSTLFAGATGFAFAPASAQSI | 3.63 |
| MKKQIITATTAVVLGSTLFAGATSAQSI | 1.92 |
| MKKQIITATTAVVLGSTLFAGAVSAQSI | 1.69 |
| MKKQIITATTAVVLGSTLFAGAYSAQSI | 5.58 |
| MKKQIITATTAVVLGSTLFAKKASAQSI | 6.18 |
| MKKQIITATTAVVLGSTLFAKKRASAQSI | 7.26 |
| MKKQIITATTAVVLGSTLFARKKRKKASAQSI | 7.27 |

| Sequence | AmyQ secretion efficiency |
| --- | --- |
| MKKQIITATTAVVLGSTLFASPASAQSI | 1.55 |
| MKKQIITATTAVVLGSTLFAVGAASAQSI | 2.23 |
| MKKQIKKKKTAVVLGSTLFAGAASAQSI | 7.3 |
| MKKQIKKKRKKVVLGSTLFAGAASAQSI | 7.55 |
| MKKQKKIAGVLTVAAAAMTAKMYATAKGN | 7.17 |
| MKKQQYGQSKKVVLGSTLFAGAASAQSI | 7.51 |
| MKKQRKIITATTAVVLGSTLFAGAASAQSI | 1.81 |
| MKKQSMALVILGALGTSYISADSS | 5.2 |
| MKKQSYSATTAVVLGSTLFAGAASAQSI | 5.86 |
| MKKQTTIINNSTIITATTAVVLGSTLFAGAASAQSI | 3.18 |
| MKKQWIGMLAAAVLLLMVPKVSLADAA | 2.86 |
| MKKRFFGPIILAFAGAIAIPS | 9.34 |
| MKKRFFGPIILAFILFAAIAIPS | 6.38 |
| MKKRFFGPIILAFILFAGAIAIEE | 6.41 |
| MKKRFFGPIILAFILFAGAIAKKK | 7.24 |
| MKKRFFGPIILAFILFAGAIDIPS | 6.03 |
| MKKRFFGPIILAFILFAGAIEIPS | 5.48 |
| MKKRFFGPIILAFILFAGAIHIPS | 5.21 |
| MKKRFFGPIILAFILFAGAIKIPS | 5.25 |
| MKKRFFGPIILAFILFAGAIVIPS | 5.76 |
| MKKRFFGPIILAFILFAGLIAIPS | 5.16 |
| MKKRFFGPIILAFILFAGTASAIAIPS | 5.82 |

| Sequence | AmyQ secretion efficiency |
| --- | --- |
| MKKRFFGPIILAFILFAGVIAIPS | 6.86 |
| MKKRFFGPIILAFILFLFSSLAGAIAIPS | 6.16 |
| MKKRFFGPIILAFILFRRRAIAIPS | 7.49 |
| MKKRFFGPIILAFILFTASTAFTAIAGAIAIPS | 4.73 |
| MKKRFRRRKKRAFILFAGAIAIPS | 6.13 |
| MKKRFSGQMMTGLLFGLTSPAFAAEK | 6.38 |
| MKKRFSLIMMFILLFMLMSPAFAAEK | 3.79 |
| MKKRFSLIMMTGLLFGLTEEEAFAAEK | 2.39 |
| MKKRFSLIMMTGLLFGLTKKRAFAAEK | 6.54 |
| MKKRFSLIMMTGLLFGLTKRKKKKAFAAEK | 7.34 |
| MKKRFSLIMMTGLLFGLTSPAFAADE | 3.46 |
| MKKRFSLIMMTGLLFGLTSPAFAAPE | 3.06 |
| MKKRFSLIMMTGLLFGLTSPAFAAPK | 1.77 |
| MKKRFSLIMMTGLLFGLTSPAFAASN | 2.36 |
| MKKRFSLIMMTGLLFGLTSPAFARKK | 7.01 |
| MKKRFSLIMMTGLLFGLTSPDEKAFAAEK | 2.56 |
| MKKRFSLIMMTGLLFGLTSPTFAAEK | 3.56 |
| MKKRFSLKKRRGLLFGLTSPAFAAEK | 8.62 |
| MKKRFSLRRRKRKLFGLTSPAFAAEK | 7.37 |
| MKKRINLIGFLVLVPALIMSGITLIEANKK | 7.4 |
| MKKRITLLALLAVVAFAFTDSSKAKAAEA | 3.06 |
| MKKRITYSFTMMLLALLAVVAFAFTDSSKAKAAEA | 1.93 |

| Sequence | AmyQ secretion efficiency |
| --- | --- |
| MKKRITYSGSQLLAVVAFAFTDSSKAKAAEA | 8.92 |
| MKKRITYSLLALLAVVAFAFFISSKAKAAEA | 5.19 |
| MKKRITYSLLALLAVVAFAFFSIAGAKAAEA | 4.27 |
| MKKRITYSLLALLAVVAFAFLTDSSKAKAAEA | 3.06 |
| MKKRITYSLLALLAVVAFAFTDSSAAKAAEA | 2.68 |
| MKKRITYSLLALLAVVAFAFTDSSKAKAAEE | 2.71 |
| MKKRITYSLLALLAVVAFAFTDSSKAKAASA | 2.18 |
| MKKRITYSLLALLAVVAFAFTDSSKAKKAEA | 4.79 |
| MKKRITYSLLALLAVVAFAFTDSSKSKAAEA | 3.09 |
| MKKRITYSLLALLAVVAFAFTDSSKTKAAEA | 4 |
| MKKRITYSLLALLAVVAFAFTRSSKAKAAEA | 3.67 |
| MKKRITYSLLALLAVVATDSSKAKAAEA | 2.87 |
| MKKRITYSLRRLLAVVAFAFTDSSKAKAAEA | 5.28 |
| MKKRITYSTSYQQTRVAFAFTDSSKAKAAEA | 6.55 |
| MKKRKCLLFLTTIALILSLSTNAFAKNT | 1.8 |
| MKKRKITIAMLILAGIALFVFISPLKSHKT | 6.94 |
| MKKRKKKFFGPIILAFILFAGAIAIPS | 6.45 |
| MKKRKKKSLLALLAVVAFAFTDSSKAKAAEA | 2.95 |
| MKKRKKKVSSLFISSAVLLSILLPSGQAHAQSA | 1.03 |
| MKKRKQRPRLLSAASLAFFAMSGSAQAAAY | 6.55 |
| MKKRKRKILLSSALSFGMLISAVPALAAGT | 3.32 |
| MKKRKRKTLVVLFTIVTFGLVSPPAALMADKP | 2.34 |
